Laboratory results from FireProtDB.

Conditions: Escherichia coli (strain K12), Thermal, CD, whole UniProt chain shown; for unfolding free energy: reversible: yes
[1] = pH 0.53, glycine-HCl 10 mM, reversible: yes (95%)
[2] = pH 0.83, glycine-HCl 10 mM, reversible: yes (96%)
[3] = pH 1.02, glycine-HCl 10 mM, reversible: yes (98%)
[4] = pH 1.07, glycine-HCl 10 mM, reversible: yes (88%)
[5] = pH 1.08, glycine-HCl 10 mM, reversible: yes (102%)
[6] = pH 1.14, glycine-HCl 10 mM, reversible: yes (101%)
[7] = pH 1.24, glycine-HCl 10 mM, reversible: yes (103%)
[8] = pH 1.28, glycine-HCl 10 mM, reversible: yes (100%)
[9] = pH 1.3, glycine-HCl 10 mM, reversible: yes (101%)
[10] = pH 1.31, glycine-HCl 10 mM, reversible: yes (94%)
[11] = pH 1.4, glycine-HCl 10 mM, reversible: yes (91%)
[12] = pH 1.41, glycine-HCl 10 mM, reversible: yes (98%)
[13] = pH 1.45, glycine-HCl 10 mM, reversible: yes (101%)
[14] = pH 1.52, glycine-HCl 10 mM, reversible: yes (107%)
[15] = pH 1.55, glycine-HCl 10 mM, reversible: yes (93%)
[16] = pH 1.55, glycine-HCl 10 mM, reversible: yes (104%)
[17] = pH 1.62, glycine-HCl 10 mM, reversible: yes (100%)
[18] = pH 1.63, glycine-HCl 10 mM, reversible: yes (108%)
[19] = pH 1.67, glycine-HCl 10 mM, reversible: yes (108%)
[20] = pH 1.71, glycine-HCl 10 mM, reversible: yes (98%)
[21] = pH 1.75, glycine-HCl 10 mM, reversible: yes (90%)
[22] = pH 1.76, glycine-HCl 10 mM, reversible: yes (101%)
[23] = pH 1.79, glycine-HCl 10 mM, reversible: yes (104%)
[24] = pH 1.84, glycine-HCl 10 mM, reversible: yes (110%)
[25] = pH 1.94, glycine-HCl 10 mM, reversible: yes (88%)
[26] = pH 2, glycine-HCl 10 mM, reversible: yes (98%)
[27] = pH 2.03, glycine-HCl 10 mM, reversible: yes (109%)
[28] = pH 2.04, glycine-HCl 10 mM, reversible: yes (95%)
[29] = pH 2.15, glycine-HCl 10 mM, reversible: yes (92%)
[30] = pH 2.18, glycine-HCl 10 mM, reversible: yes (90%)
[31] = pH 2.22, glycine-HCl 10 mM, reversible: yes (95%)
[32] = pH 2.39, glycine-HCl 10 mM, reversible: yes (95%)
[33] = pH 2.45, glycine-HCl 10 mM, reversible: yes (96%)
[34] = pH 2.53, glycine-HCl 10 mM, reversible: yes (92%)
[35] = pH 2.65, glycine-HCl 10 mM, reversible: yes (91%)
[36] = pH 2.79, glycine-HCl 10 mM, reversible: yes (92%)
[37] = pH 2.86, glycine-HCl 10 mM, reversible: yes (97%)
[38] = pH 2.95, glycine-HCl 10 mM, reversible: yes (92%)
[39] = pH 3.06, glycine-HCl 10 mM, reversible: yes (90%)
[40] = pH 3.1, glycine-HCl 10 mM, reversible: yes (85%)
[41] = pH 3.11, glycine-HCl 10 mM, reversible: yes (91%)
[42] = pH 3.18, glycine-HCl 10 mM, reversible: yes (93%)
[43] = pH 3.25, glycine-HCl 10 mM, reversible: yes (94%)
[44] = pH 3.26, glycine-HCl 10 mM, reversible: yes (95%)
[45] = pH 3.34, glycine-HCl 10 mM, reversible: yes (94%)
[46] = pH 3.38, glycine-HCl 10 mM, reversible: yes (96%)
[47] = pH 3.64, glycine-HCl 10 mM, reversible: yes (93%)
[48] = pH 3.98, glycine-HCl 10 mM, reversible: yes (93%)
[49] = pH 4, glycine-HCl 10 mM, reversible: yes (94%)

B1: Ribonuclease HI wild type, P0A7Y4 (protein)
chain: MLKQVEIFTDGSCLGNPGPGGYGAILRYRGREKTFSAGYTRTTNNRMELMAAIVALEALKEHCEVILSTDSQYVRQGITQWIHNWKKRGWKTADKKPVKNVDLWQRLDAALGQHQIKWEWVKGHAGHPENERCDELARAAAMNPTLEDTGYQVEV
[1]
  Tm: 23.6 °C
  unfolding enthalpy (van 't Hoff): 41.2 kcal/mol
[2]
  Tm: 23.9 °C
  unfolding enthalpy (van 't Hoff): 37.3 kcal/mol
[3]
  Tm: 20.4 °C
  unfolding enthalpy (van 't Hoff): 34.7 kcal/mol
[4]
  Tm: 24.9 °C
  unfolding enthalpy (van 't Hoff): 35.3 kcal/mol
[5]
  Tm: 22.3 °C
  unfolding enthalpy (van 't Hoff): 49.6 kcal/mol
[6]
  Tm: 21.5 °C
  unfolding enthalpy (van 't Hoff): 51.5 kcal/mol
[7]
  Tm: 21.5 °C
  unfolding enthalpy (van 't Hoff): 48.7 kcal/mol
[8]
  Tm: 23 °C
  unfolding enthalpy (van 't Hoff): 52.7 kcal/mol
[9]
  Tm: 21.2 °C
  unfolding enthalpy (van 't Hoff): 56.9 kcal/mol
[10]
  Tm: 20.9 °C
  unfolding enthalpy (van 't Hoff): 45.5 kcal/mol
[11]
  Tm: 20.3 °C
  unfolding enthalpy (van 't Hoff): 52.9 kcal/mol
[12]
  Tm: 21 °C
  unfolding enthalpy (van 't Hoff): 46.1 kcal/mol
[13]
  Tm: 21.8 °C
  unfolding enthalpy (van 't Hoff): 52 kcal/mol
[14]
  Tm: 21.5 °C
  unfolding enthalpy (van 't Hoff): 55.3 kcal/mol
[15]
  Tm: 21.7 °C
  unfolding enthalpy (van 't Hoff): 53.4 kcal/mol
[16]
  Tm: 20.8 °C
  unfolding enthalpy (van 't Hoff): 54.4 kcal/mol
[17]
  Tm: 20.6 °C
  unfolding enthalpy (van 't Hoff): 56.4 kcal/mol
[18]
  Tm: 21.9 °C
  unfolding enthalpy (van 't Hoff): 55.7 kcal/mol
[19]
  Tm: 23.6 °C
  unfolding enthalpy (van 't Hoff): 70.6 kcal/mol
[20]
  Tm: 21.1 °C
  unfolding enthalpy (van 't Hoff): 58.3 kcal/mol
[21]
  Tm: 21.7 °C
  unfolding enthalpy (van 't Hoff): 72.5 kcal/mol
[22]
  Tm: 25.2 °C
  unfolding enthalpy (van 't Hoff): 78.5 kcal/mol
[23]
  Tm: 23.9 °C
  unfolding enthalpy (van 't Hoff): 60.7 kcal/mol
[24]
  Tm: 23.9 °C
  unfolding enthalpy (van 't Hoff): 64.8 kcal/mol
[25]
  Tm: 24.8 °C
  unfolding enthalpy (van 't Hoff): 74.6 kcal/mol
pH 2, 10 °C, glycine-HCl 10 mM
  unfolding free energy: 2 kcal/mol
[26]
  Tm: 26.5 °C
  unfolding enthalpy (van 't Hoff): 61.3 kcal/mol
[27]
  Tm: 28.7 °C
  unfolding enthalpy (van 't Hoff): 67.9 kcal/mol
[28]
  Tm: 28.5 °C
  unfolding enthalpy (van 't Hoff): 70.6 kcal/mol
[29]
  Tm: 29.9 °C
  unfolding enthalpy (van 't Hoff): 67.1 kcal/mol
[30]
  Tm: 32.5 °C
  unfolding enthalpy (van 't Hoff): 63.5 kcal/mol
[31]
  Tm: 33 °C
  unfolding enthalpy (van 't Hoff): 65.8 kcal/mol
[32]
  Tm: 35.5 °C
  unfolding enthalpy (van 't Hoff): 66.7 kcal/mol
[33]
  Tm: 35.4 °C
  unfolding enthalpy (van 't Hoff): 71.8 kcal/mol
[34]
  Tm: 39.8 °C
  unfolding enthalpy (van 't Hoff): 76 kcal/mol
[35]
  Tm: 42.3 °C
  unfolding enthalpy (van 't Hoff): 81.3 kcal/mol
[36]
  Tm: 46.1 °C
  unfolding enthalpy (van 't Hoff): 89 kcal/mol
[37]
  Tm: 46.4 °C
  unfolding enthalpy (van 't Hoff): 80.5 kcal/mol
[38]
  Tm: 50.1 °C
  unfolding enthalpy (van 't Hoff): 91.6 kcal/mol
pH 3, 10 °C, glycine-HCl 10 mM
  unfolding free energy: 8.14 kcal/mol
pH 3, 25 °C, glycine-HCl 10 mM
  unfolding free energy: 6.08 kcal/mol
[39]
  Tm: 50.7 °C
  unfolding enthalpy (van 't Hoff): 102 kcal/mol
[40]
  Tm: 53.9 °C
  unfolding enthalpy (van 't Hoff): 106 kcal/mol
[41]
  Tm: 52.2 °C
  unfolding enthalpy (van 't Hoff): 101 kcal/mol
[42]
  Tm: 54 °C
  unfolding enthalpy (van 't Hoff): 102 kcal/mol
[43]
  Tm: 55.1 °C
  unfolding enthalpy (van 't Hoff): 109 kcal/mol
[44]
  Tm: 58.9 °C
  unfolding enthalpy (van 't Hoff): 96.6 kcal/mol
[45]
  Tm: 57.6 °C
  unfolding enthalpy (van 't Hoff): 100 kcal/mol
[46]
  Tm: 57.4 °C
  unfolding enthalpy (van 't Hoff): 101 kcal/mol
[47]
  Tm: 62.1 °C
  unfolding enthalpy (van 't Hoff): 106 kcal/mol
[48]
  Tm: 66 °C
  unfolding enthalpy (van 't Hoff): 125 kcal/mol
pH 4, 10 °C, glycine/HCl 10 mM
  unfolding free energy: 12 kcal/mol
pH 4, 25 °C, glycine-HCl 10 mM
  unfolding free energy: 10 kcal/mol
[49]
  Tm: 66.6 °C
  unfolding enthalpy (van 't Hoff): 112 kcal/mol
